From the nanobody polyreactivity screen of Harvey et al. (2022)

Assay: yeast display, Sf9 membrane polyspecificity reagent, FACS + sequencing; frameworks hold sequencing errors
Outline: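 Nanobodies from a synthetic yeast display library (Saccharomyces cerevisiae BJ5465), induced 36–48 hours with galactose, were stained 1 hour at 4 °C with 10% biotinylated, detergent-solubilized Sf9 membrane reagent, enriched on streptavidin microbeads, then FACS-sorted. Anti-HA (expression) and streptavidin (reagent binding) fluorescence set low and high (top ~1%) gates. Polyreactivity labels come from the gate of origin. Genes were colony-PCR amplified, MiSeq 2 × 250 sequenced and filtered by CDR length.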

Sequence | polyreactivity (PSR sort gate)
QVQLVESGGGLVQAGGILRLSCAASGSIFYAYAMGWNRQAPGKEAEFVARISGSGGSTYYADSVKGRFTISRDNAKNTVYLQMNSLKPEDTAVYYCAATRERYKYYKRYYWGQGTQVTVSS | low polyreactivity
QVQLVESGGGLVQAGGSLRLSCAASGSIFPKYAMGWYRQAPGKEREFVAAISRRGGSTYYAYSVKGRFTISRDNAKNTVYLQMNSLKPEDTAVYYCSVKIPTYPIFGRYGYWGQGTQVTVSS | high polyreactivity
QVQLVESGGGLVQAGGSLRLSCAASGRIFAAYAMGWYRQAPGKERELVAAITWDGDSTYYADSVKGRFTISRDNAKNTVYLQMNSLKPEDTAVYYCAAYWSTWYDWGQGTQVTVSS | high polyreactivity
QVQLVESGGGLVQAGGSLRLSCAASARIIFRNAMGWYRQAPGKERELVAAITYSGGSTYYADSVKGRFTISRDNAKNTVYLQMNSLKPEDTAVYYCGAGYWFCYSRVTRYDYWGQGTQVTVSS | high polyreactivity
QVQLVESGGGLVQAGGSLRLSCDASGFTFVDYTMGWYRQAPGKERELVAAISRRGGSTYYADSVKGRFTISRANSKNTVYLQLNSLQQADTAVYYCNAYRRNYYYYQRHGYWGQCTQVTVSS | high polyreactivity
QVQLVESGGGLVQAGGSLRLTCAASGFTLGLNAMGWYRQAPGKEREVVAAIRRSAGSTYYADSVKGRFTISRDNAKNTVYLQMNSLKPEDTAVYYCAAGFLWAKYAYGHWGQGTQVTVSS | low polyreactivity
QVQLVESGGGLVQAGGSLRLSCAASGSTFDGYAMGWYRQAPGKERELVAAISSSGTSTYYADSVKGRFTISRDNAKNTVYLQMNSLKPEDTAVYYCAGKGATQSWAGDYWGQGTQVTVSS | low polyreactivity
QVQLVESGGRLVQAGGSLRLTCAASGSTFSRYAMGWSRQAPGKERELVAAITGSGGNTYYADSVKGRFTISRDNAKNTVYLQMNSLKPEDTAVYYCAAEDYVGWYNFEYWGQGTQVTVSS | high polyreactivity
QVQLVESGGGLVQAGGSLRLSCAASGSTFRYYTMGWYRQAPGKERELVAAITRRSASTYYADSVKGRFTISRDNAKNTVYLQMNSLKPEDTAVYYCAVRTNGPFEYWGQGTQVTVSS | high polyreactivity
QVQLVESGGGLVQAGGSLRLSCAASGRILTYYAMGWYRQAPGKERELVASISSNGGTYYADSVKGRFTISRDNAKNTVYLQMNSLKPEDTAVYYCNAKRVARYQYGASYNYWGQGTQVTVSS | high polyreactivity
QVQLVESGGGLVQAGGSHRLSCAASGRIFTSNTMGWYRQAPGKERELVAAITSSGGSMYYADSVKGRFTISRDNAKNTVYLQMNSLIPEDTAVYYCAADTIGYHYWYDYWGQGTQVTVSS | low polyreactivity
QVQLVESGGGLVQAGGSLRLSCADSGSIFYPYAKGLYRQDPGKERELVATITSSGSSTYYADSVKGRFTISRDNAKNTVYLQMNSLKPEDTAVYYCAAYRVILYYLYDYWGQGTQVTLSS | low polyreactivity
QVQLVESVGGLVQAGGSLRLSCAASGFIVSTYAMGWYRQAPGKERELVAAITNSGGSTYYADSVKGRFTISRDNAKNTVYLQMNSLKPEDTAVYYCARRRSYRDNYWGQGTQVTVSS | high polyreactivity
QVQLVESGGGLVQAGGSLRLSCAASGRIFPHNAMGWYRQAPGNERELVAAISSHGGSTYYAVSVKGRFTISRDNAKNTVYLQMNSLKPEDTAVYYCAKYRYFAGDGDYWGQGTQVTVSS | low polyreactivity
QDQLVESGGGLDQAGGSLRLICAASGRIFIYYAMGWYRQAPGKETELVAAISSTGTTNYADSVKGRFTISRDNAKNTVYLQMTSLKPEDTAVYFCAARVRTATRRFTSYSWGQGTQVTVSS | high polyreactivity
QVQIVESGGGLVQAGGSLRLSCAASGRTFNQYAMGWYRQAPVKERELVAAISASGGNTYYADSVKGRFTISRDNAKNNVYVQMNSLKQEDTEVYYCADKQSSSRYYGNDYWGQGTQVTVSS | high polyreactivity
QVQLVESGGGLVQAGGSLRLSCAASGSILGNAMGWYRQAPGKERELVAAISRNGDSTYYADSVKGRFTISRDNAKNTVYLQMNSLKPEDTAVYYCNAQWFFYGYIAGDYWGQGTQVTVSS | high polyreactivity
